These results are taken from patent publication EP4786494A1.

Experiment [1] addresses human FGFR2 on cells (KATO-III gastric cancer cells; SNU-16 cells; Ba/F3 cells engineered to express human FGFR2b) (human) (UniProt P21802). Kind of experiment: flow cytometry on KATO-III cells expressing human FGFR2. For orientation: Flow cytometry measures light scatter and fluorescence of single cells or particles in a stream.
For experiment [2], the target named is human FGFR2-his protein (huFGFR2-his) (human). The experiment can be described thus: BLI epitope binning on FGFR2-his (HISK sensor), 200 nM antibodies; competitor: huA1B2-3.
Chain of human FGFR2-his protein (huFGFR2-his) (human) (chain, as listed by the source limits assumed): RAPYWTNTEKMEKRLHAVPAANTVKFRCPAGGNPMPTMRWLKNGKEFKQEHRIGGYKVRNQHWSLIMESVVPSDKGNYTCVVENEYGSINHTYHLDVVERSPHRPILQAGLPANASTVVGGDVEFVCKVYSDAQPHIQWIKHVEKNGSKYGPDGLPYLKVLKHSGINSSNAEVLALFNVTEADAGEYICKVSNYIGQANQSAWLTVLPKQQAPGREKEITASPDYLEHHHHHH
The target is the same in experiment [3]. Kind of experiment: BLI epitope binning on FGFR2-his (HISK sensor), 200 nM antibodies; competitor: huG11B8-5.
Experiment [4] shares this target. Kind of experiment: BLI epitope binning on FGFR2-his (HISK sensor), 200 nM antibodies; competitor: bemarituzumab.

By EC50 is commonly meant the concentration that produces a half-maximal response. A low value points to a more potent agent.

B1: antibody D12D8 (murine chimeric anti-FGFR2 antibody) (antibody, human IgG1, kappa, V domains shown)
VH: QVQLQQSGAELARPGASVKLSCKASGYTFTNYGISWVKQRTGQGLEWIGEIYPRSGNTYYNEKFKGKATLTADKSSSTAYMELRSLTSEDSAVYFCARGDYSNSDYWGQGTTLTVSS
VL: DIQMTQTTSSLSASLGDRVTISCRASQDITDHLNWYQQKPDGTVKLLIYYTSRLHSGVPSRFSGSGSGTDYSLTISNLEQEDIATYFCQQGNTLPRTFGGGTKLEIKR
B1 came in with an EC50 in experiment [1] of 7.37 nM.

B2: humanized monoclonal antibody huA1B2-3 (antibody, human IgG1, kappa, V domains shown)
VH: EVQLVQSGAEVKKPGATVKISCKASGFNIKDYYMHWVQQAPGKGLEWMGRIDPEDGDTEYAEKFQGRVTITADTSTNTAYMELSSLRSEDTAVYYCTTYYYVSTYEDYWGQGTTVTVSS
VL: EIVLTQSPATLSLSPGERATLSCRASSSVSHMHWYQQKPGQAPKLLIYSTSNLASGVPARFSGSGSGTDYTLTISSLEPEDFAVYYCHHWSSWTFGGGTKVEIKR
Turning to B2, the epitope binning value (%), not given amounted to 10.2% in experiment [2], 42.6% in experiment [3] and 95.7% in experiment [4].

B3: antibody F6B6 (murine chimeric anti-FGFR2 antibody) (antibody, human IgG1, kappa, V domains shown)
VH: QVQLKQSGPGLVQPSQSLSITCTVSGFSLTNYGVHWVRQSPGKGLEWLGVIWSDGSTDYDAAFISRLSISTDNSKSQVFFKMNSLQAADTAIYYCARKGDYDYDNYAMDYWGQGTSVTVSS
VL: DVVITQSPATLSVTPGDSVSLSCRASQSISNNLHWYQQKSHESPRLLIKYASQSISGIPSRFSGSGSGTDFTLSINSVETEDFGMYFCQQSNSWPLTFGAGTKLELKR
For the molecule B3, the EC50 in experiment [1] turned out to be 14.4 nM.

B4: bemarituzumab (antibody, human IgG1, kappa, V domains shown)
VH: QVQLVQSGAEVKKPGSSVKVSCKASGYIFTTYNVHWVRQAPGQGLEWIGSIYPDNGDTSYNQNFKGRATITADKSTSTAYMELSSLRSEDTAVYYCARGDFAYWGQGTLVTVSS
VL: DIQMTQSPSSLSASVGDRVTITCKASQGVSNDVAWYQQKPGKAPKLLIYSASYRYTGVPSRFSGSGSGTDFTFTISSLQPEDIATYYCQQHSTTPYTFGQGTKLEIKR
On to B4, for which the values for the epitope binning value (%), not given in experiment [2], in experiment [3] and in experiment [4] were 106%, 36.8% and 7.8%, respectively.

B5: antibody A1B2 (murine chimeric anti-FGFR2 antibody) (antibody, human IgG1, kappa, V domains shown)
VH: EVQLQQSGAELVRPGASVKLSCTASGFNIKDYYMHWVKQRPEQGLEWIGRIDPEDGDTEYAPKFQGKATMTADTSSNTAYLQLSSLTSEDTAVYYCTTYYYVSTYEDYWGQGTTLTVSS
VL: QIVLTQSPAIMSASLGEEITLTCSASSSVSHMHWYQQKSGTSPKLLIYSTSNLASGVPSRFSGSGSGTFYSLTISSVEAEDAADYYCHHWSSWTFGGGTKLEIKR
The molecule B5 showed a half-maximal effective concentration (EC50) in experiment [1] of 0.336 nM.

B6: antibody G11B8 (murine chimeric anti-FGFR2 antibody) (antibody, human IgG1, kappa, V domains shown)
VH: EVQLQQSGPELVKPGASVKIPCKASGYTFTDYNMDWVKQSHGKSLEWIGDINPKNGETFYNQKFKGKATLTVDRSSNTAYMELRSLTSEDTAVYFCAKRDLNWYFDYWGQGTTLTVSS
VL: DIQMTQSSSYLSVSLGGRVTITCKASDHINNWLAWYQQKPGNAPRLLISGATSLETGVPSRFSGSGSGKDYTLSITSLQTEDVATYYCQQYWSTPWTFGGGTKLEIKR
Consider B6, for which the 50% effective concentration (EC50) in experiment [1] was 0.949 nM. Against the preceding molecule, the EC50 is about 2.8-fold higher.

B7: antibody H3F7-a (murine chimeric anti-FGFR2 antibody) (antibody, human IgG1, kappa, V domains shown)
VH: EVQLQQSGPELVKPGASVKIPCKASGYTFTDYNMDWVKQSHGKSLEWIGDINPKNGETFYNQKFKGKATLTVDRSSSTAYMELRSLTSEDTAVYFCAKRDLNWYFDYWGQGTTLTVSS
VL: DIQMTQSSSYLSVSLGGRVTITCKASDHINNWLAWYQQKPGNAPRLLISGATSLETGVPSRFSGSGSGKDYTLSITSLQTEDVATYYCQQYWSTPWTFGGGTKLEIKR
The molecule B7 displayed a 50% effective concentration (EC50) in experiment [1] of 1.09 nM.
